Measurements taken from patent US20040248275A1, “Engineered bacterial aggregates” (priority 2003, published 2004).

B1: Lentil lectin (protein, UniProt P02870 31-210; P02870 218-269, looked up)
Lectin beta chain: TETTSFSITKFSPDQKNLIFQGDGYTTKGKLTLTKAVKSTVGRALYSTPIHIWDRDTGNVANFVTSFTFVIDAPSSYNVADEFTFFIAPVDTKPQTGGGYLGVFNSKEYDKTSQTVAVEFDTFYNAAWDPSNKERHIGIDVNSIKSVNTKSWNLQNGERANVVIAFNAATNVLTVTLTYP
Lectin alpha chain: VTSYTLNEVVPLKDVVPEWVRIGFSATTGAEFAAHEVHSWSFHSELGGTSSS

Assays:
Assay type in all cases: cell-based
C. freundii = assay: Lectin aggregation of bacterial cells (microtitre wells, semi-quantitative score); set-up: key: Where the addition of lectins did not cause the aggregation of cells, a score of “0” was assigned; Lectins that caused cellular-aggregation to give small flocs in a turbid suspension were given a score of “+”; A score of “++” was given to lectin-cell aggregate mixes that resulted in large aggregates seen by eye in a turbid suspension; Lectins that caused cellular aggregation to give easily visible aggregates in a clear solution were given a score of “+++”; conditions: cells O.D. 0.5 at 650 nm
Protocol: (§1) Assay approach: Six lectins were chosen to discover their suitability for the aggregation of different species of bacteria. These were Concanavalin A, Lentil lectin, Pseudomonas aeruginosa lectin, peanut lectin, Limulus polyphemus lectin and wheat germ lectin.
(§2) The ability of the lectins to aggregate bacterial cells was studied by mixing cells at an O.D. of 0.5 at 650 nm with different lectins at different concentrations. The extent of aggregation was determined by a semi-quantitative approach. […] Lectins that caused cellular-aggregation to give small flocs in a turbid suspension were given a score of “+”. […] Lectins that caused cellular aggregation to give easily visible aggregates in a clear solution were given a score of “+++”.

C. aquaticum = assay: as above; set-up: key: Where the addition of lectins did not cause the aggregation of cells, a score of “0” was assigned; Lectins that caused cellular-aggregation to give small flocs in a turbid suspension were given a score of “+”; A score of “++” was given to lectin-cell aggregate mixes that resulted in large aggregates seen by eye in a turbid suspension; Lectins that caused cellular aggregation to give easily visible aggregates in a clear solution were given a score of “+++”; conditions: cells O.D. 0.5 at 650 nm
Protocol: as §1, §2

K. pneumoniae = assay: as above; set-up: key: Where the addition of lectins did not cause the aggregation of cells, a score of “0” was assigned; Lectins that caused cellular-aggregation to give small flocs in a turbid suspension were given a score of “+”; A score of “++” was given to lectin-cell aggregate mixes that resulted in large aggregates seen by eye in a turbid suspension; Lectins that caused cellular aggregation to give easily visible aggregates in a clear solution were given a score of “+++”; conditions: cells O.D. 0.5 at 650 nm
Protocol: as §1, §2

Pseudomonas sp. 2881 = assay: as above; set-up: key: Where the addition of lectins did not cause the aggregation of cells, a score of “0” was assigned; Lectins that caused cellular-aggregation to give small flocs in a turbid suspension were given a score of “+”; A score of “++” was given to lectin-cell aggregate mixes that resulted in large aggregates seen by eye in a turbid suspension; Lectins that caused cellular aggregation to give easily visible aggregates in a clear solution were given a score of “+++”; conditions: cells O.D. 0.5 at 650 nm
Protocol: as §1, §2

[1] = test system: Pseudomonas sp. Strain 2881; assay: Titration of ConA against bacterial suspension, aggregate size measured; conditions: within 5.0% S.E.
Protocol: Aggregates of different size were constructed by titrating cona against suspensions of bacteria and observing the formation of aggregates. These were visible by eye as well as by optical microscope (FIG. 1).
Aggregate size was measured. A parabolic relationship between the ratio of ConA and bacterial density was observed (Table 3). […] This hypothesis reflects that established for antibody:antigen precipitation reactions.
Within an optimal range of […] and 0.6 mg/ml ConA, bacterial aggregates of 10 to >100 μm diameter could be reproducibly formed with a lectin excess that enabled further bacteria to be sequestered to the surface of the aggregate. The aggregates could be readily disassociated by the addition of approximately 50 mM maltose, glucose or sucrose to ConA, followed by 30s of gentle pipetting. This is ideal for the accurate enumeration of viable bacteria based upon CFU measurement on nutrient agar.

[2] = test system: taxonomically distinct species of bacteria; assay: Lectins tested for potential to construct bacterial aggregates
Source text: We have selected the lectin Concanavalin A (ConA) as the most preferred (Sigma, Poole, Dorset, UK). Other lectins tested for their potential in the present invention were Wheat Germ Lectin (WGA), lectin from Limulus polyphemus and Peanut Agglutinin (PNA). […] However, ConA was the only lectin that strongly reacted with, and aggregated, over 15 taxonomically distinct species of bacteria. ConA was subsequently deemed the most preferable for use. However, any lectin is suitable for the invention as long as the lectin is capable of agglutinating the desired species.
as §1, §2

| Molecule | extent of aggregation (score) (C. freundii; lectin 1 × 10^−1 mg/mL) | extent of aggregation (score) (C. freundii; lectin 1 × 10^−2 mg/mL) | extent of aggregation (score) (C. freundii; lectin 1 × 10^−3 mg/mL) | extent of aggregation (score) (C. aquaticum; lectin 1 × 10^−1 mg/mL) | extent of aggregation (score) (C. aquaticum; lectin 1 × 10^−2 mg/mL) | extent of aggregation (score) (C. aquaticum; lectin 1 × 10^−3 mg/mL) | extent of aggregation (score) (K. pneumoniae; lectin 1 × 10^−1 mg/mL) | extent of aggregation (score) (K. pneumoniae; lectin 1 × 10^−2 mg/mL) | extent of aggregation (score) (K. pneumoniae; lectin 1 × 10^−3 mg/mL) | extent of aggregation (score) (Pseudomonas sp. 2881; lectin 1 × 10^−1 mg/mL) | extent of aggregation (score) (Pseudomonas sp. 2881; lectin 1 × 10^−2 mg/mL) | extent of aggregation (score) (Pseudomonas sp. 2881; lectin 1 × 10^−3 mg/mL) | further results |
| --- | --- | --- | --- | --- | --- | --- | --- | --- | --- | --- | --- | --- | --- |
| Concanavalin A | +++ | + | + | ++ | ++ | 0 | +++ | + | + | +++ | ++ | ++ | Size of aggregate ([1]; Amount of ConA 0.001 mg/ml): No aggregation; Size of aggregate ([1]; Amount of ConA 0.01 mg/ml): 11.2 μm; Size of aggregate ([1]; Amount of ConA 0.05 mg/ml): 53.4 μm; Size of aggregate ([1]; Amount of ConA 0.1 mg/ml): 106.7 μm; Size of aggregate ([1]; Amount of ConA 0.2 mg/ml): 91.2 μm; Size of aggregate ([1]; Amount of ConA 0.4 mg/ml): 73.1 μm; Size of aggregate ([1]; Amount of ConA 0.6 mg/ml): 55.4 μm; Size of aggregate ([1]; Amount of ConA 0.8 mg/ml): No aggregation; Size of aggregate ([1]; Amount of ConA 1.0 mg/ml): No aggregation; taxonomically distinct species of bacteria strongly reacted with, and aggregated [2]: over 15 |
| B1 | +++ | + | + | ++ | + | 0 | ++ | + | + | +++ | ++ | + | – |
